Measurements taken from the supplement of paper PMC10724198.
± gives the standard deviation of the averaged measurements.

Key:
[1] = tested on: Saccharomyces cerevisiae; assay: protein stability index of tFT-peptide fusion (C-terminal peptide) (PSI (0-1 scale)); higher = more stable (slower turnover); details: genetic background: wild type; temperature: 30 C
[2] = tested on: Saccharomyces cerevisiae; assay: as above
Description: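 MPS profiling in S. cerevisiae of the tFT-X12 degron library: putative degron peptides plus stable controls, 12 aa, fused to the C-terminus of a sfGFP-mCherry timer. Cells are FACS-sorted into 8 mCherry/sfGFP bins and deep-sequenced. PSI runs from 0 (unstable) to 1 (stable). Backgrounds are wild type, das1Δ and doa10Δ at 30 °C, and wild type, das1Δ, cdc34-1 and cdc53-1 at 37 °C; 2-3 technical replicates each.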

[3] = genetic background: cdc34-1, temperature: 37 C
[4] = genetic background: cdc53-1, temperature: 37 C
[5] = genetic background: das1 deletion, temperature: 30 C
[6] = genetic background: das1 deletion, temperature: 37 C
[7] = genetic background: doa10 deletion, temperature: 30 C
[8] = genetic background: wild type, temperature: 30 C
[9] = genetic background: wild type, temperature: 37 C
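Also: PSI is a weighted mean of sequencing reads over stability bins, variants kept only with over 10 reads, mCherry proximal and sfGFP distal, peptide attached via GGGS linker.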

| Sequence | protein stability index [1] | protein stability index [2, 3] | protein stability index [2, 4] | protein stability index [2, 5] | protein stability index [2, 6] | protein stability index [2, 7] | protein stability index [2, 8] | protein stability index [2, 9] |
| --- | --- | --- | --- | --- | --- | --- | --- | --- |
| AFLCVFGFCFFV | 0.339 ± 0.037 | 0.423 ± 0.015 | 0.455 ± 0.014 | 0.372 ± 0.035 | 0.482 ± 0.026 | 0.285 ± 0.008 | 0.278 ± 0.019 | 0.407 ± 0.025 |
| AFRLRHEIISLM | 0.282 ± 0.013 | 0.552 ± 0.081 | 0.726 ± 0.024 | 0.63 ± 0.056 | 0.744 ± 0.037 | 0.136 ± 0.0049 | 0.139 ± 0.037 | 0.344 ± 0.041 |
| SSVFLGWLIVCY | 0.245 ± 0.0037 | 0.0861 ± 0.0015 | 0.115 ± 0.033 | 0.173 ± 0.043 | 0.2851 ± 0.0027 | 0.154 ± 0.0099 | 0.168 ± 0.021 | 0.255 ± 0.027 |
| VVRMRPRLFSLY | 0.3429 ± 0.0022 | 0.807 ± 0.04 | 0.8659 ± 0.0019 | 0.687 ± 0.047 | 0.816 ± 0.025 | 0.186 ± 0.011 | 0.208 ± 0.0086 | 0.354 ± 0.033 |
| FSLFYYIHLSVA | 0.192 ± 0.019 | 0.191 ± 0.002 | 0.211 ± 0.02 | 0.169 ± 0.034 | 0.2771 ± 0.002 | 0.0982 ± 0.0035 | 0.104 ± 0.028 | 0.197 ± 0.0021 |
| GGVCVRMECWMG | 0.496 ± 0.0059 | 0.57 ± 0.036 | 0.629 ± 0.018 | 0.486 ± 0.032 | 0.5789 ± 0.0015 | 0.485 ± 0.03 | 0.496 ± 0.034 | 0.5864 ± 0.0051 |
| AISLPVEVLAFS | 0.383 ± 0.048 | 0.4 ± 0.028 | 0.387 ± 0.024 | 0.286 ± 0.051 | 0.438 ± 0.022 | 0.255 ± 0.025 | 0.293 ± 0.01 | 0.439 ± 0.021 |
| TIKGRLNVRKIE | 0.552 ± 0.11 | 0.653 ± 0.055 | 0.7066 ± 0.0065 | 0.623 ± 0.0085 | 0.741 ± 0.025 | 0.3538 ± 0.0019 | 0.463 ± 0.032 | 0.573 ± 0.085 |
| VRFSAVFVKVGV | 0.4727 ± 0.0026 | 0.547 ± 0.031 | 0.553 ± 0.0091 | 0.395 ± 0.026 | 0.5703 ± 0.0032 | 0.377 ± 0.0083 | 0.402 ± 0.023 | 0.5317 ± 0.0017 |
| WIGCTVKIASLY | 0.437 ± 0.036 | 0.619 ± 0.015 | 0.67 ± 0.018 | 0.558 ± 0.03 | 0.693 ± 0.012 | 0.219 ± 0.021 | 0.261 ± 0.019 | 0.49113 ± 0.00019 |
| GRRLGLLNLLSY | 0.456 ± 0.064 | 0.649 ± 0.029 | 0.744 ± 0.0023 | 0.625 ± 0.013 | 0.724 ± 0.019 | 0.255 ± 0.016 | 0.305 ± 0.028 | 0.601 ± 0.027 |
| FCSNLLSMVIAV | 0.432 ± 0.014 | 0.344 ± 0.0055 | 0.382 ± 0.014 | 0.32 ± 0.032 | 0.4315 ± 0.0038 | 0.265 ± 0.012 | 0.3 ± 0.012 | 0.438 ± 0.029 |
| GRPYHLCLFSCF | 0.353 ± 0.021 | 0.646 ± 0.018 | 0.754 ± 0.013 | 0.646 ± 0.036 | 0.754 ± 0.024 | 0.333 ± 0.024 | 0.343 ± 0.027 | 0.577 ± 0.016 |
| LPPPTPRSVLLN | 0.51 ± 0.076 | 0.644 ± 0.039 | 0.737 ± 0.034 | 0.672 ± 0.019 | 0.732 ± 0.015 | 0.296 ± 0.019 | 0.315 ± 0.04 | 0.5546 ± 0.0016 |
| CGLGKVLGWRWV | 0.4241 ± 0.0014 | 0.643 ± 0.036 | 0.7267 ± 0.002 | 0.64 ± 0.015 | 0.745 ± 0.023 | 0.185 ± 0.0019 | 0.227 ± 0.01 | 0.5193 ± 0.0018 |
| VVLAFFFWFFVG | 0.365 ± 0.016 | 0.359 ± 0.04 | 0.518 ± 0.028 | 0.383 ± 0.034 | 0.507 ± 0.011 | 0.25 ± 0.0047 | 0.265 ± 0.038 | 0.362 ± 0.01 |
| YSVERCLFVSVA | 0.414 ± 0.034 | 0.422 ± 0.025 | 0.4443 ± 0.0013 | 0.352 ± 0.034 | 0.502 ± 0.013 | 0.287 ± 0.02 | 0.314 ± 0.01 | 0.443 ± 0.018 |
